Results: patent US20150166621A1 (Hoffmann-La Roche, published 2015)
Square brackets hold non-standard residues; d marks the D form. Nle = CCCC[C@H](N)C(=O)O; Mamp = not defined here; Nva = CCC[C@H](N)C(=O)O

B1: peptide of SEQ ID NO: 56 (peptide)
peptide: Ac-KQYDREFLLDF-NH2
B2: peptide of SEQ ID NO: 67 (peptide)
peptide: Ac-KQYDREFLLDFQ[dF]MPA-NH2
B3: peptide of SEQ ID NO: 78 (peptide)
peptide: Ac-Y[Nva]LLAFQF[Nle]-NH2
SMILES: CCCC[C@H](NC(=O)[C@H](Cc1ccccc1)NC(=O)[C@H](CCC(N)=O)NC(=O)[C@H](Cc1ccccc1)NC(=O)[C@H](C)NC(=O)[C@H](CC(C)C)NC(=O)[C@H](CC(C)C)NC(=O)[C@H](CCC)NC(=O)[C@H](Cc1ccc(O)cc1)NC(C)=O)C(N)=O
B4: peptide of SEQ ID NO: 65 (peptide)
peptide: Ac-KQYDREFLLDFQFM[dP]A-NH2
B5: peptide of SEQ ID NO: 83 (peptide)
peptide: Ac-[dK]QYDREFLLDFQFMPA-NH2
B6: peptide of SEQ ID NO: 64 (peptide)
peptide: Ac-KQYDREFLLDFQFMP[dA]-NH2
B7: peptide of SEQ ID NO: 53 (peptide)
peptide: Ac-KQYDREFLLDFQFMP-NH2
B8: peptide of SEQ ID NO: 77 (peptide)
peptide: Ac-Y[Mamp]LLAFQF[Nle]-NH2
modifications: reading uncertain
B9: peptide of SEQ ID NO: 55 (peptide)
peptide: Ac-KQYDREFLLDFQF-NH2
B10: peptide of SEQ ID NO: 70 (peptide)
peptide: Ac-YDREFLLDFQF[Nle]-NH2
SMILES: CCCC[C@H](NC(=O)[C@H](Cc1ccccc1)NC(=O)[C@H](CCC(N)=O)NC(=O)[C@H](Cc1ccccc1)NC(=O)[C@H](CC(=O)O)NC(=O)[C@H](CC(C)C)NC(=O)[C@H](CC(C)C)NC(=O)[C@H](Cc1ccccc1)NC(=O)[C@H](CCC(=O)O)NC(=O)[C@H](CCCNC(=N)N)NC(=O)[C@H](CC(=O)O)NC(=O)[C@H](Cc1ccc(O)cc1)NC(C)=O)C(N)=O
B11: peptide of SEQ ID NO: 74 (peptide)
peptide: Ac-YNREFLLDFQF[Nle]-NH2
SMILES: CCCC[C@H](NC(=O)[C@H](Cc1ccccc1)NC(=O)[C@H](CCC(N)=O)NC(=O)[C@H](Cc1ccccc1)NC(=O)[C@H](CC(=O)O)NC(=O)[C@H](CC(C)C)NC(=O)[C@H](CC(C)C)NC(=O)[C@H](Cc1ccccc1)NC(=O)[C@H](CCC(=O)O)NC(=O)[C@H](CCCNC(=N)N)NC(=O)[C@H](CC(N)=O)NC(=O)[C@H](Cc1ccc(O)cc1)NC(C)=O)C(N)=O
B12: peptide of SEQ ID NO: 71 (peptide)
peptide: YDRQFLLDFQFL
modifications: N-terminal Ac; Nle at 12; C-terminal NH2
B13: peptide of SEQ ID NO: 75 (peptide)
peptide: YNRQFLLDFQFL
modifications: N-terminal Ac; Nle at 12; C-terminal NH2
B14: peptide of SEQ ID NO: 68 (peptide)
peptide: Ac-YDREFLLDFQFM-NH2
B15: peptide of SEQ ID NO: 82 (peptide)
peptide: Ac-YDREFLLDFQFMPA-NH2
B16: peptide of SEQ ID NO: 54 (peptide)
peptide: Ac-KQYDREFLLDFQFM-NH2
B17: peptide of SEQ ID NO: 76 (peptide)
peptide: Ac-Y[Mamb]LLAFQF[Nle]-NH2
B18: peptide of SEQ ID NO: 79 (peptide)
peptide: Ac-F[5Ava]LLAFQF[Nle]-NH2
B19: peptide of SEQ ID NO: 85 (peptide)
peptide: Ac-KRKRFDREFLLAFQF[Nle]-NH2
SMILES: CCCC[C@H](NC(=O)[C@H](Cc1ccccc1)NC(=O)[C@H](CCC(N)=O)NC(=O)[C@H](Cc1ccccc1)NC(=O)[C@H](C)NC(=O)[C@H](CC(C)C)NC(=O)[C@H](CC(C)C)NC(=O)[C@H](Cc1ccccc1)NC(=O)[C@H](CCC(=O)O)NC(=O)[C@H](CCCNC(=N)N)NC(=O)[C@H](CC(=O)O)NC(=O)[C@H](Cc1ccccc1)NC(=O)[C@H](CCCNC(=N)N)NC(=O)[C@H](CCCCN)NC(=O)[C@H](CCCNC(=N)N)NC(=O)[C@H](CCCCN)NC(C)=O)C(N)=O
B20: peptide of SEQ ID NO: 80 (peptide)
peptide: Ac-KRYDREFLLAFQF[Nle]-NH2
SMILES: CCCC[C@H](NC(=O)[C@H](Cc1ccccc1)NC(=O)[C@H](CCC(N)=O)NC(=O)[C@H](Cc1ccccc1)NC(=O)[C@H](C)NC(=O)[C@H](CC(C)C)NC(=O)[C@H](CC(C)C)NC(=O)[C@H](Cc1ccccc1)NC(=O)[C@H](CCC(=O)O)NC(=O)[C@H](CCCNC(=N)N)NC(=O)[C@H](CC(=O)O)NC(=O)[C@H](Cc1ccc(O)cc1)NC(=O)[C@H](CCCNC(=N)N)NC(=O)[C@H](CCCCN)NC(C)=O)C(N)=O
B21: peptide of SEQ ID NO: 84 (peptide)
peptide: Ac-KRFDREFLLAFQF[Nle]-NH2
SMILES: CCCC[C@H](NC(=O)[C@H](Cc1ccccc1)NC(=O)[C@H](CCC(N)=O)NC(=O)[C@H](Cc1ccccc1)NC(=O)[C@H](C)NC(=O)[C@H](CC(C)C)NC(=O)[C@H](CC(C)C)NC(=O)[C@H](Cc1ccccc1)NC(=O)[C@H](CCC(=O)O)NC(=O)[C@H](CCCNC(=N)N)NC(=O)[C@H](CC(=O)O)NC(=O)[C@H](Cc1ccccc1)NC(=O)[C@H](CCCNC(=N)N)NC(=O)[C@H](CCCCN)NC(C)=O)C(N)=O
B22: peptide of SEQ ID NO: 52 (peptide)
peptide: Ac-KQYDREFLLDFQFMPA-NH2
B23: peptide of SEQ ID NO: 57 (peptide)
peptide: Ac-KQYDREFLLDFQFMAA-NH2
B24: peptide of SEQ ID NO: 63 (peptide)
peptide: Ac-AQYDREFLLDFQFMPA-NH2
B25: peptide of SEQ ID NO: 61 (peptide)
peptide: Ac-KQYAREFLLDFQFMPA-NH2
B26: peptide of SEQ ID NO: 59 (peptide)
peptide: Ac-KQYDREFLLAFQFMPA-NH2
B27: peptide of SEQ ID NO: 60 (peptide)
peptide: Ac-KQYDRAFLLDFQFMPA-NH2
B28: peptide of SEQ ID NO: 58 (peptide)
peptide: Ac-KQYDREFLLDFQFAPA-NH2
B29: peptide of SEQ ID NO: 62 (peptide)
peptide: Ac-KAYDREFLLDFQFMPA-NH2
B30: peptide of SEQ ID NO: 69 (peptide)
peptide: Ac-YDREFLLDFQF-NH2
B31: peptide of SEQ ID NO: 66 (peptide)
peptide: Ac-KQYDREFLLDFQF[dM]PA-NH2
B32: peptide of SEQ ID NO: 81 (peptide)
peptide: Ac-QYDREFLLDFQFMPA-NH2
B33: peptide of SEQ ID NO: 7 (peptide)
peptide: Ac-KRYDREFLLAFQF[Nle]VYDLGLRRLRQRRRLRR-NH2
SMILES: CCCC[C@H](NC(=O)[C@H](Cc1ccccc1)NC(=O)[C@H](CCC(N)=O)NC(=O)[C@H](Cc1ccccc1)NC(=O)[C@H](C)NC(=O)[C@H](CC(C)C)NC(=O)[C@H](CC(C)C)NC(=O)[C@H](Cc1ccccc1)NC(=O)[C@H](CCC(=O)O)NC(=O)[C@H](CCCNC(=N)N)NC(=O)[C@H](CC(=O)O)NC(=O)[C@H](Cc1ccc(O)cc1)NC(=O)[C@H](CCCNC(=N)N)NC(=O)[C@H](CCCCN)NC(C)=O)C(=O)N[C@H](C(=O)N[C@@H](Cc1ccc(O)cc1)C(=O)N[C@@H](CC(=O)O)C(=O)N[C@@H](CC(C)C)C(=O)NCC(=O)N[C@@H](CC(C)C)C(=O)N[C@@H](CCCNC(=N)N)C(=O)N[C@@H](CCCNC(=N)N)C(=O)N[C@@H](CC(C)C)C(=O)N[C@@H](CCCNC(=N)N)C(=O)N[C@@H](CCC(N)=O)C(=O)N[C@@H](CCCNC(=N)N)C(=O)N[C@@H](CCCNC(=N)N)C(=O)N[C@@H](CCCNC(=N)N)C(=O)N[C@@H](CC(C)C)C(=O)N[C@@H](CCCNC(=N)N)C(=O)N[C@@H](CCCNC(=N)N)C(N)=O)C(C)C
B34: peptide of SEQ ID NO: 22 (peptide)
peptide: Ac-KRYDREFLLAFQF[Nle]RRLRQRRRLRRERVRA-NH2
SMILES: CCCC[C@H](NC(=O)[C@H](Cc1ccccc1)NC(=O)[C@H](CCC(N)=O)NC(=O)[C@H](Cc1ccccc1)NC(=O)[C@H](C)NC(=O)[C@H](CC(C)C)NC(=O)[C@H](CC(C)C)NC(=O)[C@H](Cc1ccccc1)NC(=O)[C@H](CCC(=O)O)NC(=O)[C@H](CCCNC(=N)N)NC(=O)[C@H](CC(=O)O)NC(=O)[C@H](Cc1ccc(O)cc1)NC(=O)[C@H](CCCNC(=N)N)NC(=O)[C@H](CCCCN)NC(C)=O)C(=O)N[C@@H](CCCNC(=N)N)C(=O)N[C@@H](CCCNC(=N)N)C(=O)N[C@@H](CC(C)C)C(=O)N[C@@H](CCCNC(=N)N)C(=O)N[C@@H](CCC(N)=O)C(=O)N[C@@H](CCCNC(=N)N)C(=O)N[C@@H](CCCNC(=N)N)C(=O)N[C@@H](CCCNC(=N)N)C(=O)N[C@@H](CC(C)C)C(=O)N[C@@H](CCCNC(=N)N)C(=O)N[C@@H](CCCNC(=N)N)C(=O)N[C@@H](CCC(=O)O)C(=O)N[C@@H](CCCNC(=N)N)C(=O)N[C@H](C(=O)N[C@@H](CCCNC(=N)N)C(=O)N[C@@H](C)C(N)=O)C(C)C

Molecular target: T1, Human eIF4E (aa 28-217) with a C-terminal His tag (human, UniProt P06730 28-217)
T1 construct: also called HH-eIF4E; eukaryotic initiation factor 4E
Assay: TR-FRET competition vs biotin-4G2 peptide on HH-eIF4E
Description: (§1) Test peptides (1.6 mM stock in DMSO) were diluted 3 fold in series in DMSO and solutions were diluted 4 fold in Assay Buffer (50 mM NaPi, pH 6.5, 50 mM KCl, 1 mM DTT, 0.004% NP40 and 0.5 mg/ml gammaglobulin). […] The samples were incubated at room temperature for 20 minutes.
(§2) IC50 values were calculated using Condoseo software (Genedata AG, Basel, Switzerland).

T1 sequence (P06730 other isoform, or with tags, fused parts or gaps limits assumed): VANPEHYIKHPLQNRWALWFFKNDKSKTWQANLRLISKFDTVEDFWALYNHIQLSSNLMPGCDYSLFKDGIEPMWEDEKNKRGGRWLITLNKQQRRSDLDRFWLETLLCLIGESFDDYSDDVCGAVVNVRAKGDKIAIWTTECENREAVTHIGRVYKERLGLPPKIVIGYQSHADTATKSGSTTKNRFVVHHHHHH

With B1 as the binder, how does the IC50 read?
The IC50 was 3.44 µM.

With B2 as the binder, how does the IC50 read?
The IC50 was 13.7 µM.

How did the IC50 turn out when B3 was run?
Its IC50 is 6.63 µM.

How did the IC50 turn out when B4 was run?
The IC50 was 7.69 µM.

For B5, which IC50 is on record?
Its IC50 is 1.67 µM.

With B6 as the binder, how does the IC50 read?
The IC50 was 8.69 µM.

Which IC50 does the source give for B7 here?
The IC50 was 7.46 µM.

How did the IC50 turn out when B8 was run?
Its IC50 is 5.35 µM.

How did the IC50 turn out when B9 was run?
The IC50 was 14.6 µM.

Which IC50 does the source give for B10 here?
The IC50 was 3.39 µM.

How did the IC50 turn out when B11 was run?
Its IC50 is 10.9 µM.

With B12 as the binder, how does the IC50 read?
The IC50 was 11 µM.

B13 was tested. Which IC50 did it give?
The IC50 was 11 µM.

With B14 as the binder, how does the IC50 read?
Its IC50 is 13.1 µM.

Which IC50 does the source give for B15 here?
Its IC50 is 7.52 µM.

With B16 as the binder, how does the IC50 read?
The IC50 was 8.84 µM.

Which IC50 does the source give for B17 here?
Its IC50 is 12 µM.

Which IC50 does the source give for B18 here?
Its IC50 is 9.34 µM.

B19 was tested. Which IC50 did it give?
The IC50 was 0.32 µM.

How did the IC50 turn out when B20 was run?
The IC50 was 0.643 µM.

How did the IC50 turn out when B21 was run?
Its IC50 is 4.07 µM.

B22 was tested. Which IC50 did it give?
Its IC50 is 10.5 µM.

Which IC50 does the source give for B23 here?
The IC50 was 6.96 µM.

Which IC50 does the source give for B24 here?
Its IC50 is 12.3 µM.

With B25 as the binder, how does the IC50 read?
The IC50 was 11.8 µM.

B26 was tested. Which IC50 did it give?
The IC50 was 1.42 µM.

How did the IC50 turn out when B27 was run?
Its IC50 is 9.26 µM.

With B28 as the binder, how does the IC50 read?
Its IC50 is 11.3 µM.

With B29 as the binder, how does the IC50 read?
The IC50 was 13.6 µM.

Which IC50 does the source give for B30 here?
Its IC50 is 12.4 µM.

B31 was tested. Which IC50 did it give?
Its IC50 is 7.75 µM.

Which IC50 does the source give for B32 here?
Its IC50 is 8.68 µM.

Molecular target: T1, Human eIF4E (aa 28-217) with a …
Assay: as above
Remark: another data set of the same source
Description: as §1, §2

How did the IC50 turn out when B33 was run?
Its IC50 is 0.21 µM.

With B34 as the binder, how does the IC50 read?
The IC50 was 0.198 µM.
